Molecular target: HERV-E peptide … (SEQ ID NO: 1) presented by HLA-A11 on cells (human)
Experiment: cell-based or functional assay

B1: HLA-A11 restricted HERV-E reactive T cell receptor (TCR α chain SEQ ID NO: 4, TCR β chain SEQ ID NO: 5) (TCR, V domains shown)
V domain 1: GIQVEQSPPDLILQEGANSTLRCNFSDSVNNLQWFHQNPWGQLINLFYIPSGTKQNGRLSATTVATERYSLLYISSSQTTDSGVYFCAVRGGADGLTFGKGTHLIIQP
V domain 2: DTEVTQTPKHLVMGMTNKKSLKCEQHMGHRAMYWYKQKAKKPPELMFVYSYEKLSINESVPSRFSPECPNSSLLNLHLHALQPEDSALYLCASSPPNEKLFFGSGTQLSVLE
interferon-γ secretion by ELISA (FIG. 8): > 2 fold over background

Reference: US20190231821A1 (US Dept. of Health and Human Services, published 2019)
